Assay results reported in patent US10314894B2, “Treatment of cardio-renal disease using PCSK6” (THE CLEVELAND CLINIC FOUNDATION, priority 2014, dated 2019).
Residue numbers refer to the chain shown, from its start.

What was measured:
corin variant Q568P = biological target: T1, corin variant Q568P (Homo sapiens, UniProt Q9Y5Q5, Q568P); assay: PCSK6-mediated corin activation in HEK293 cells, corin variant Q568P; format: cell-based; conditions: Western
T1 construct: expressed in transfected cells; host or cells: HEK293
T1 sequence (Q9Y5Q5 1-1042 Q568P): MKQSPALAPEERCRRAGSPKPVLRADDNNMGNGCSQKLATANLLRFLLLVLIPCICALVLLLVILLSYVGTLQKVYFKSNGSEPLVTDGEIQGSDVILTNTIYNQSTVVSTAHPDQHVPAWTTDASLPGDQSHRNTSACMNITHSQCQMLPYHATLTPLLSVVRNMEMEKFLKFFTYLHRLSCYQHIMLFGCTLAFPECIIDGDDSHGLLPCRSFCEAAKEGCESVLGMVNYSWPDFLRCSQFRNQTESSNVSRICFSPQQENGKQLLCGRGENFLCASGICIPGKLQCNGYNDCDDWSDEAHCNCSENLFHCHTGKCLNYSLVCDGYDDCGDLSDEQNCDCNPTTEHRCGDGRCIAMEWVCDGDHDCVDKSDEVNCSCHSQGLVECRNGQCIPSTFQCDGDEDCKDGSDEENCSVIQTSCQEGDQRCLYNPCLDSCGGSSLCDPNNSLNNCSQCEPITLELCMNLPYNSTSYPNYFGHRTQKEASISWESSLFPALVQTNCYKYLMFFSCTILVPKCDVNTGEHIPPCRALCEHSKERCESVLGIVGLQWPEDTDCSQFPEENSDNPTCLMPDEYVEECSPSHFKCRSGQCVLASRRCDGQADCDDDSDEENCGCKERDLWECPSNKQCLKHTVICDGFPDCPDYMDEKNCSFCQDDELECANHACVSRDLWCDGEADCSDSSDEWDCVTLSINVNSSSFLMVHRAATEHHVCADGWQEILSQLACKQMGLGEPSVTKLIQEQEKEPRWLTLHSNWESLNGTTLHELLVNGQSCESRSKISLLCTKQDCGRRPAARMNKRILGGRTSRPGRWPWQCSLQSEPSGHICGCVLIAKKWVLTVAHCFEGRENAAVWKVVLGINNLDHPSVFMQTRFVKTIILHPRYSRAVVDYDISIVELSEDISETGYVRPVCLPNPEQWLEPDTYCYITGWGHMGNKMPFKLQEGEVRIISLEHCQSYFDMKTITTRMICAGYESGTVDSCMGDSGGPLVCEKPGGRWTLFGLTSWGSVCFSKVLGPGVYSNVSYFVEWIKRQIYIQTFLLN
Excerpt: (§1) Plasmids expressing human corin WT and mutants R801A, S985A, T555I, Q568P, T555I/Q568P, K317E, S472G and R539C were reported previously. Dong, N. et al., J Biol Chem 289, 17909-17916 (2014); Knappe et al., J Biol Chem 278, 52363-52370 (2003); Wu et al., J Biol Chem 277, 16900-16905. (2002). Plasmids expressing human PCSK1-9 were made by cloning respective cDNAs into pcNDA3.1 vector. Recombinant corin and PCSK proteins encoded by these plasmids contained a C-terminal V5 or flag tag for protein detection in Western blotting.
(§2) HEK293 and HL-1 cells were transfected with corin or PCSK6 expression plasmids. After 48-72 h, cells were lysed in a buffer containing 25 mM Tris-HCl, pH 7.4, 150 mM NaCl, 1 mM EDTA, 1% (v/v) NP-40, and 1% (v/v) protease inhibitor cocktail. Recombinant corin and PCSK6 proteins were immunoprecipitated with an anti-V5 or anti-flag antibody. Western blotting was carried out to analyze corin expression and activation or PCSK6 expression with or without reducing agents. Percentage of corin activation (corin-p vs. corin fragments) was quantified by densitometric analysis of Western blots.

corin mutant S472G = biological target: T2, corin mutant S472G (Homo sapiens, UniProt Q9Y5Q5, S472G); assay: PCSK6-mediated corin activation in HEK293 cells, corin mutant S472G; format: cell-based; conditions: Western, densitometry
T2 construct: expressed in transfected cells; host or cells: HEK293
T2 sequence (Q9Y5Q5 1-1042 S472G): T1 sequence (Q9Y5Q5 1-1042 Q568P) with S472G, P568Q
Excerpt: as §1, §2

B1: proprotein convertase subtilisin/kexin-6 (protein, listed as Homo sapiens)
chain: MPPRAPPAPGPRPPPRAAAATDTAAGAGGAGGAGGAGGPGFRPLAPRPWRWLLLLALPAACSAPPPRPVYTNHWAVQVLGGPAEADRVAAAHGYLNLGQIGNLEDYYHFYHSKTFKRSTLSSRGPHTFLRMDPQVKWLQQQEVKRRVKRQVRSDPQALYFNDPIWSNMWYLHCGDKNSRCRSEMNVQAAWKRGYTGKNVVVTILDDGIERNHPDLAPNYDSYASYDVNGNDYDPSPRYDASNENKHGTRCAGEVAASANNSYCIVGIAYNAKIGGIRMLDGDVTDVVEAKSLGIRPNYIDIYSASWGPDDDGKTVDGPGRLAKQAFEYGIKKGRQGLGSIFVWASGNGGREGDYCSCDGYTNSIYTISVSSATENGYKPWYLEECASTLATTYSSGAFYERKIVTTDLRQRCTDGHTGTSVSAPMVAGIIALALEANSQLTWRDVQHLLVKTSRPAHLKASDWKVNGAGHKVSHFYGFGLVDAEALVVEAKKWTAVPSQHMCVAASDKRPRSIPLVQVLRTTALTSACAEHSDQRVVYLEHVVVRTSISHPRRGDLQIYLVSPSGTKSQLLAKRLLDLSNEGFTNWEFMTVHCWGEKAEGQWTLEIQDLPSQVRNPEKQGKLKEWSLILYGTAEHPYHTFSAHQSRSRMLELSAPELEPPKAALSPSQVEVPEDEEDYTAQSTPGSANILQTSVCHPECGDKGCDGPNADQCLNCVHFSLGSVKTSRKCVSVCPLGYFGDTAARRCRRCHKGCETCSSRAATQCLSCRRGFYHHQEMNTCVTLCPAGFYADESQKNCLKCHPSCKKCVDEPEKCTVCKEGFSLARGSCIPDCEPGTYFDSELIRCGECHHTCGTCVGPGREECIHCAKNFHFHDWKCVPACGEGFYPEEMPGLPHKVCRRCDENCLSCAGSSRNCSRCKTGFTQLGTSCITNHTCSNADETFCEMVKSNRLCERKLFIQFCCRTCLLAG
modifications: C-terminal FLAG tag
- PCSK6-mediated activation cleavage (corin variant Q568P): detected
- reduction in PCSK6-mediated corin activation compared with WT corin (corin mutant S472G): 99%
